Measurements: US20030148973A1, “MAGE-A1 peptides for treating or preventing cancer” (priority 2001, published 2003)

Biological target: T1, HLA-A0201 molecules on T2 cells (Homo sapiens, UniProt P04439, D140Y/D185E/D98H/E176V/E277Q/G131W/G231S/I119V/I121R/I166T/I218V/L300P/L318F/N151K/N90K/P208A/P217A/Q86G/Q94H/R138H/R169H/T345S)
T1 construct: endogenous in cells; host or cells: T2 cell line (from Dr. Peter Creswell, Yale University)
Test: Binding and stabilization of surface HLA-A0201 on T2 cells (BB7.2 antibody, flow cytometry)
Conditions: 20 μg peptide pulsed onto 10^6 denatured T2 cells, 4 hours at 26° C.; BB7.2 binding detected with FITC conjugate
Method: The ability of the MAGE-A1 derived peptides to be presented in the context of HLA-A2 was determined by the ability of such peptides stabilize membrane-bound HLA-A0201 molecules The T2 cell line (Dr. Peter Creswell, Yale University) has been well documented to have a defective TAP (e.g. Transporter for Antigen Processing) transporter function. As a result, the majority of intracellularly generated peptides are not transported into the endoplasmic reticulum and thus are unable to associate with newly synthesized HLA class 1 MHC molecules (e.g. HLA-A0201; Salter, R D and Creswell, P. (1986) EMBO J 5:943). […] The stability of the surface HLA-A0201 molecules can be restored upon interaction with suitable exogenous peptides. […]
In order to determine whether the identified nonapeptides can be presented by HLA-A0201, T2 cells were propagated in RPMI complete medium (RPMI medium supplemented with 10% heat-inactivated bovine serum, 120.0 units per ml of penicillin G sodium, 120 μg per ml of streptomycin sulphate, and 0.35 mg per ml of L-glutamine). The ability of MAGE-A1 derived peptides to bind and stabilize surface HLA-A0201 molecules on T2 cells was determined utilizing a standard protocol (Deng, Y. (1997) J Immunol 158:1507-1515). […] The binding of BB7.2 was detected via the addition of 1.0 μg per test of goat anti-mouse IgG-Fc fluorescein (FITC) conjugate (BETHYL Laboratories Inc). […]

## CLGLSYDGL (listed as Homo sapiens) [MAGE-A1 174]
  Fluorescence Index (FI): 1.73
